Molecular target: KRAS G13D antigen (G13D-RT6, SEQ ID NO: 20) loaded on Lovo-DPA0301:DPB0501 cells (human)
Test: cell-based or functional assay

Binder	TCR Mut RLU/WT RLU
B8.2.4 TCR mutant β95Q-A (TCR, V domains shown) V domain 1: AQKITQTQPGMFVQEKEAVTLDCTYDTSDPSYGLFWYKQPSSGEMIFLIYQGSYDQQNATEGRYSLNFQKARKSANLVISASQLGDSAMYFCAMRERTGTASKLTFGTGTRLQVTL V domain 2: DVKVTQSSRYLVKRTGEKVFLECVQDMDHENMFWYRQDPGLGLRLIYFSYDVKMKEKGDIPEGYSVSREKKERFSLILESASTNQTSMYLCASSATVPPQHFGDGTRLSILE	0.86 ratio
B8.2.4 TCR mutant β95Q-F (TCR, V domains shown) V domain 1: AQKITQTQPGMFVQEKEAVTLDCTYDTSDPSYGLFWYKQPSSGEMIFLIYQGSYDQQNATEGRYSLNFQKARKSANLVISASQLGDSAMYFCAMRERTGTASKLTFGTGTRLQVTL V domain 2: DVKVTQSSRYLVKRTGEKVFLECVQDMDHENMFWYRQDPGLGLRLIYFSYDVKMKEKGDIPEGYSVSREKKERFSLILESASTNQTSMYLCASSFTVPPQHFGDGTRLSILE	0.34 ratio
B8.2.4 TCR mutant β95Q-H (TCR, V domains shown) V domain 1: AQKITQTQPGMFVQEKEAVTLDCTYDTSDPSYGLFWYKQPSSGEMIFLIYQGSYDQQNATEGRYSLNFQKARKSANLVISASQLGDSAMYFCAMRERTGTASKLTFGTGTRLQVTL V domain 2: DVKVTQSSRYLVKRTGEKVFLECVQDMDHENMFWYRQDPGLGLRLIYFSYDVKMKEKGDIPEGYSVSREKKERFSLILESASTNQTSMYLCASSHTVPPQHFGDGTRLSILE	0.68 ratio
B8.2.4 TCR mutant β95Q-E (TCR, V domains shown) V domain 1: AQKITQTQPGMFVQEKEAVTLDCTYDTSDPSYGLFWYKQPSSGEMIFLIYQGSYDQQNATEGRYSLNFQKARKSANLVISASQLGDSAMYFCAMRERTGTASKLTFGTGTRLQVTL V domain 2: DVKVTQSSRYLVKRTGEKVFLECVQDMDHENMFWYRQDPGLGLRLIYFSYDVKMKEKGDIPEGYSVSREKKERFSLILESASTNQTSMYLCASSETVPPQHFGDGTRLSILE	0.81 ratio
B8.2.4 TCR mutant β95Q-I (TCR, V domains shown) V domain 1: AQKITQTQPGMFVQEKEAVTLDCTYDTSDPSYGLFWYKQPSSGEMIFLIYQGSYDQQNATEGRYSLNFQKARKSANLVISASQLGDSAMYFCAMRERTGTASKLTFGTGTRLQVTL V domain 2: DVKVTQSSRYLVKRTGEKVFLECVQDMDHENMFWYRQDPGLGLRLIYFSYDVKMKEKGDIPEGYSVSREKKERFSLILESASTNQTSMYLCASSITVPPQHFGDGTRLSILE	0.74 ratio
B8.2.4 TCR mutant β95Q-C (TCR, V domains shown) V domain 1: AQKITQTQPGMFVQEKEAVTLDCTYDTSDPSYGLFWYKQPSSGEMIFLIYQGSYDQQNATEGRYSLNFQKARKSANLVISASQLGDSAMYFCAMRERTGTASKLTFGTGTRLQVTL V domain 2: DVKVTQSSRYLVKRTGEKVFLECVQDMDHENMFWYRQDPGLGLRLIYFSYDVKMKEKGDIPEGYSVSREKKERFSLILESASTNQTSMYLCASSCTVPPQHFGDGTRLSILE	1.14 ratio
B8.2.4 TCR mutant β95Q-K (TCR, V domains shown) V domain 1: AQKITQTQPGMFVQEKEAVTLDCTYDTSDPSYGLFWYKQPSSGEMIFLIYQGSYDQQNATEGRYSLNFQKARKSANLVISASQLGDSAMYFCAMRERTGTASKLTFGTGTRLQVTL V domain 2: DVKVTQSSRYLVKRTGEKVFLECVQDMDHENMFWYRQDPGLGLRLIYFSYDVKMKEKGDIPEGYSVSREKKERFSLILESASTNQTSMYLCASSKTVPPQHFGDGTRLSILE	0.3 ratio
B8.2.4 TCR mutant β95Q-G (TCR, V domains shown) V domain 1: AQKITQTQPGMFVQEKEAVTLDCTYDTSDPSYGLFWYKQPSSGEMIFLIYQGSYDQQNATEGRYSLNFQKARKSANLVISASQLGDSAMYFCAMRERTGTASKLTFGTGTRLQVTL V domain 2: DVKVTQSSRYLVKRTGEKVFLECVQDMDHENMFWYRQDPGLGLRLIYFSYDVKMKEKGDIPEGYSVSREKKERFSLILESASTNQTSMYLCASSGTVPPQHFGDGTRLSILE	1.03 ratio
B8.2.4 TCR mutant β95Q-D (TCR, V domains shown) V domain 1: AQKITQTQPGMFVQEKEAVTLDCTYDTSDPSYGLFWYKQPSSGEMIFLIYQGSYDQQNATEGRYSLNFQKARKSANLVISASQLGDSAMYFCAMRERTGTASKLTFGTGTRLQVTL V domain 2: DVKVTQSSRYLVKRTGEKVFLECVQDMDHENMFWYRQDPGLGLRLIYFSYDVKMKEKGDIPEGYSVSREKKERFSLILESASTNQTSMYLCASSDTVPPQHFGDGTRLSILE	0.6 ratio

Further lines, results first:

TCR Mut RLU/WT RLU	Binder
0.76 ratio	B8.2.4 TCR mutant β95Q-V (TCR, V domains shown) V domain 1: AQKITQTQPGMFVQEKEAVTLDCTYDTSDPSYGLFWYKQPSSGEMIFLIYQGSYDQQNATEGRYSLNFQKARKSANLVISASQLGDSAMYFCAMRERTGTASKLTFGTGTRLQVTL V domain 2: DVKVTQSSRYLVKRTGEKVFLECVQDMDHENMFWYRQDPGLGLRLIYFSYDVKMKEKGDIPEGYSVSREKKERFSLILESASTNQTSMYLCASSVTVPPQHFGDGTRLSILE
0.28 ratio	B8.2.4 TCR mutant β96T-D (TCR, V domains shown) V domain 1: AQKITQTQPGMFVQEKEAVTLDCTYDTSDPSYGLFWYKQPSSGEMIFLIYQGSYDQQNATEGRYSLNFQKARKSANLVISASQLGDSAMYFCAMRERTGTASKLTFGTGTRLQVTL V domain 2: DVKVTQSSRYLVKRTGEKVFLECVQDMDHENMFWYRQDPGLGLRLIYFSYDVKMKEKGDIPEGYSVSREKKERFSLILESASTNQTSMYLCASSQDVPPQHFGDGTRLSILE
0.78 ratio	B8.2.4 TCR mutant β96T-C (TCR, V domains shown) V domain 1: AQKITQTQPGMFVQEKEAVTLDCTYDTSDPSYGLFWYKQPSSGEMIFLIYQGSYDQQNATEGRYSLNFQKARKSANLVISASQLGDSAMYFCAMRERTGTASKLTFGTGTRLQVTL V domain 2: DVKVTQSSRYLVKRTGEKVFLECVQDMDHENMFWYRQDPGLGLRLIYFSYDVKMKEKGDIPEGYSVSREKKERFSLILESASTNQTSMYLCASSQCVPPQHFGDGTRLSILE
0.61 ratio	B8.2.4 TCR mutant β95Q-S (TCR, V domains shown) V domain 1: AQKITQTQPGMFVQEKEAVTLDCTYDTSDPSYGLFWYKQPSSGEMIFLIYQGSYDQQNATEGRYSLNFQKARKSANLVISASQLGDSAMYFCAMRERTGTASKLTFGTGTRLQVTL V domain 2: DVKVTQSSRYLVKRTGEKVFLECVQDMDHENMFWYRQDPGLGLRLIYFSYDVKMKEKGDIPEGYSVSREKKERFSLILESASTNQTSMYLCASSSTVPPQHFGDGTRLSILE
0.59 ratio	B8.2.4 TCR mutant β95Q-T (TCR, V domains shown) V domain 1: AQKITQTQPGMFVQEKEAVTLDCTYDTSDPSYGLFWYKQPSSGEMIFLIYQGSYDQQNATEGRYSLNFQKARKSANLVISASQLGDSAMYFCAMRERTGTASKLTFGTGTRLQVTL V domain 2: DVKVTQSSRYLVKRTGEKVFLECVQDMDHENMFWYRQDPGLGLRLIYFSYDVKMKEKGDIPEGYSVSREKKERFSLILESASTNQTSMYLCASSTTVPPQHFGDGTRLSILE
0.92 ratio	B8.2.4 TCR mutant β95Q-Y (TCR, V domains shown) V domain 1: AQKITQTQPGMFVQEKEAVTLDCTYDTSDPSYGLFWYKQPSSGEMIFLIYQGSYDQQNATEGRYSLNFQKARKSANLVISASQLGDSAMYFCAMRERTGTASKLTFGTGTRLQVTL V domain 2: DVKVTQSSRYLVKRTGEKVFLECVQDMDHENMFWYRQDPGLGLRLIYFSYDVKMKEKGDIPEGYSVSREKKERFSLILESASTNQTSMYLCASSYTVPPQHFGDGTRLSILE
0.6 ratio	B8.2.4 TCR mutant β95Q-N (TCR, V domains shown) V domain 1: AQKITQTQPGMFVQEKEAVTLDCTYDTSDPSYGLFWYKQPSSGEMIFLIYQGSYDQQNATEGRYSLNFQKARKSANLVISASQLGDSAMYFCAMRERTGTASKLTFGTGTRLQVTL V domain 2: DVKVTQSSRYLVKRTGEKVFLECVQDMDHENMFWYRQDPGLGLRLIYFSYDVKMKEKGDIPEGYSVSREKKERFSLILESASTNQTSMYLCASSNTVPPQHFGDGTRLSILE
0.64 ratio	B8.2.4 TCR mutant β95Q-L (TCR, V domains shown) V domain 1: AQKITQTQPGMFVQEKEAVTLDCTYDTSDPSYGLFWYKQPSSGEMIFLIYQGSYDQQNATEGRYSLNFQKARKSANLVISASQLGDSAMYFCAMRERTGTASKLTFGTGTRLQVTL V domain 2: DVKVTQSSRYLVKRTGEKVFLECVQDMDHENMFWYRQDPGLGLRLIYFSYDVKMKEKGDIPEGYSVSREKKERFSLILESASTNQTSMYLCASSLTVPPQHFGDGTRLSILE
0.77 ratio	B8.2.4 TCR mutant β96T-A (TCR, V domains shown) V domain 1: AQKITQTQPGMFVQEKEAVTLDCTYDTSDPSYGLFWYKQPSSGEMIFLIYQGSYDQQNATEGRYSLNFQKARKSANLVISASQLGDSAMYFCAMRERTGTASKLTFGTGTRLQVTL V domain 2: DVKVTQSSRYLVKRTGEKVFLECVQDMDHENMFWYRQDPGLGLRLIYFSYDVKMKEKGDIPEGYSVSREKKERFSLILESASTNQTSMYLCASSQAVPPQHFGDGTRLSILE
0.99 ratio	B8.2.4 TCR mutant β95Q-M (TCR, V domains shown) V domain 1: AQKITQTQPGMFVQEKEAVTLDCTYDTSDPSYGLFWYKQPSSGEMIFLIYQGSYDQQNATEGRYSLNFQKARKSANLVISASQLGDSAMYFCAMRERTGTASKLTFGTGTRLQVTL V domain 2: DVKVTQSSRYLVKRTGEKVFLECVQDMDHENMFWYRQDPGLGLRLIYFSYDVKMKEKGDIPEGYSVSREKKERFSLILESASTNQTSMYLCASSMTVPPQHFGDGTRLSILE
0.21 ratio	B8.2.4 TCR mutant β95Q-P (TCR, V domains shown) V domain 1: AQKITQTQPGMFVQEKEAVTLDCTYDTSDPSYGLFWYKQPSSGEMIFLIYQGSYDQQNATEGRYSLNFQKARKSANLVISASQLGDSAMYFCAMRERTGTASKLTFGTGTRLQVTL V domain 2: DVKVTQSSRYLVKRTGEKVFLECVQDMDHENMFWYRQDPGLGLRLIYFSYDVKMKEKGDIPEGYSVSREKKERFSLILESASTNQTSMYLCASSPTVPPQHFGDGTRLSILE
0.88 ratio	B8.2.4 TCR mutant β95Q-W (TCR, V domains shown) V domain 1: AQKITQTQPGMFVQEKEAVTLDCTYDTSDPSYGLFWYKQPSSGEMIFLIYQGSYDQQNATEGRYSLNFQKARKSANLVISASQLGDSAMYFCAMRERTGTASKLTFGTGTRLQVTL V domain 2: DVKVTQSSRYLVKRTGEKVFLECVQDMDHENMFWYRQDPGLGLRLIYFSYDVKMKEKGDIPEGYSVSREKKERFSLILESASTNQTSMYLCASSWTVPPQHFGDGTRLSILE
0.43 ratio	B8.2.4 TCR mutant β95Q-R (TCR, V domains shown) V domain 1: AQKITQTQPGMFVQEKEAVTLDCTYDTSDPSYGLFWYKQPSSGEMIFLIYQGSYDQQNATEGRYSLNFQKARKSANLVISASQLGDSAMYFCAMRERTGTASKLTFGTGTRLQVTL V domain 2: DVKVTQSSRYLVKRTGEKVFLECVQDMDHENMFWYRQDPGLGLRLIYFSYDVKMKEKGDIPEGYSVSREKKERFSLILESASTNQTSMYLCASSRTVPPQHFGDGTRLSILE

— patent US20240123070A1 (SHANGHAI GENBASE BIOTECHNOLOGY, published 2024)
